Reference: patent US20230265151A1, “GIP/GLP1 CO-AGONIST COMPOUNDS” (priority 2020, published 2023)
Substitutions are numbered along the chain they refer to. *1 amine or outer side, *2 acyl side, *3 side chain or, on linkers, in order; H or OH if unused. Where no end group is shown, it is not given here. Side-chain parts run from the residue outwards. [ ]: non-standard residue; d: D form. The star is where a group is joined. Decanoyl(10-(4-HOOC-PhO)) = O=C(O)c1ccc(OCCCCCCCCCC(=O)*)cc1; αMePhe(2-F) = C[C@](N)(Cc1ccccc1F)C(=O)O; γGlu = O=C(O)[C@H](CCC(=O)[*:2])N[*:1]; C14 diacid = O=C(O)CCCCCCCCCCCCC(=O)*; αMeY = C[C@](N)(Cc1ccc(O)cc1)C(=O)O; αMeL = CC(C)C[C@](C)(N)C(=O)O; Orn = NCCC[C@H](N)C(=O)O; AEEA = NCCOCCOCC(=O)O; Aib = CC(C)(N)C(=O)O

B1: Example 450 (peptide)
peptide: YXEGTXTSDXXIXLDXQAQXXFIKXLIKGGPSSGAPPPS
modifications: not fully specified; Y-Aib-EGT-αMeF(2F)-TSD-4Pal-Aib-I-αMeL-LD-Orn-QAQ-Aib-Orn-FIK((2-[2-(2-Amino-ethoxy)-ethoxy]-acetyl)-Aoc-(γ-Glu)-CO-(CH2)12-CO2)-αMeY-LIK((2-[2-(2-Amino-ethoxy)-ethoxy]-acetyl)-Aoc-(γ-Glu)-CO-(CH2)12-CO2)GGPSSGAPPPS-NH2
B2: Example 440 (peptide)
peptide: B1 peptide
modifications: Y-Aib-EGT-αMeF(2F)-TSD-4Pal-Aib-I-αMeL-LD-Orn-QAQ-Aib-Orn-FIK((2-[2-(2-Amino-ethoxy)-ethoxy]-acetyl)2-(γ-Glu)-(10-(4-carboxyphenoxy)decanoyl))-αMeY-LIK((2-[2-(2-Amino-ethoxy)-ethoxy]-acetyl)2-(γ-Glu)-(10-(4-carboxyphenoxy)decanoyl))GGPSSGAPPPS-NH2
B3: Example 391 (peptide)
peptide: B1 peptide
modifications: Y-Aib-EGT-αMeF(2F)-TSD-4Pal-Aib-I-αMeL-LD-Orn-QAQ-Aib-Orn-FIK((2-[2-(2-Amino-ethoxy)-ethoxy]-acetyl)2-(γ-Glu)-CO-(CH2)12-CO2H)-αMeY-LIK((2-[2-(2-Amino-ethoxy)-ethoxy]-acetyl)2-(γ-Glu)-CO-(CH2)12-CO2H)GGPSSGAPPPS-NH2
B4: Example 443 (peptide)
peptide: B1 peptide
modifications: Y-Aib-EGT-αMeF(2F)-TSD-4Pal-Aib-I-αMeL-LD-Orn-QAQ-Aib-Orn-FIK((2-[2-(2-Amino-ethoxy)-ethoxy]-acetyl)2-(γ-Glu)-CO-(CH2)14-CO2)-αMeY-LIK((2-[2-(2-Amino-ethoxy)-ethoxy]-acetyl)2-(γ-Glu)-CO-(CH2)14-CO2)GGPSSGAPPPS-NH2
B5: Example 401 (peptide)
peptide: B1 peptide with X10Y
modifications: Y-Aib-EGT-αMeF(2F)-TSDY-Aib-I-αMeL-LD-Orn-QAQ-Aib-Orn-FIK((2-[2-(2-Amino-ethoxy)-ethoxy]-acetyl)2-(γ-Glu)-CO-(CH2)12-CO2H)-αMeY-LIK((2-[2-(2-Amino-ethoxy)-ethoxy]-acetyl)2-(γ-Glu)-CO-(CH2)12-CO2H)GGPSSGAPPPS-NH2
B6: Example 453 (peptide)
peptide: B1 peptide
modifications: Y-Aib-EGT-αMeF(2F)-TSD-4Pal-Aib-I-αMeL-LD-Orn-QAQ-Aib-Orn-FIK((2-[2-(2-Amino-ethoxy)-ethoxy]-acetyl)-Ahx-(γ-Glu)-(10-(4-carboxyphenoxy)decanoyl))-αMeY-LIK((2-[2-(2-Amino-ethoxy)-ethoxy]-acetyl)-Ahx-(γ-Glu)-(10-(4-carboxyphenoxy)decanoyl))GGPSSGAPPPS-NH2
B7: Example 444 (peptide)
peptide: B1 peptide
modifications: Y-Aib-EGT-αMeF(2F)-TSD-4Pal-Aib-I-αMeL-LD-Orn-QAQ-Aib-4Pal-FIK((2-[2-(2-Amino-ethoxy)-ethoxy]-acetyl)2-(γ-Glu)-CO-(CH2)12-CO2H)-αMeY-LIK((2-[2-(2-Amino-ethoxy)-ethoxy]-acetyl)2-(γ-Glu)-CO-(CH2)12-CO2H)GGPSSGAPPPS-NH2
B8: Example 390 (peptide)
peptide: Y[Aib]EGT[αMePhe(2-F)]TSDV[Aib]I[αMeL]LD[Orn]QAQ[Aib]EFIK([AEEA-AEEA-γGlu-C14 diacid])[αMeY]LIK([AEEA-AEEA-γGlu-C14 diacid])GGPSSGAPPPS-NH2
modifications: N-terminus assumed
SMILES: CC[C@H](C)[C@H](NC(=O)[C@H](CC(C)C)NC(=O)[C@](C)(Cc1ccc(O)cc1)NC(=O)[C@H](CCCCNC(=O)COCCOCCNC(=O)COCCOCCNC(=O)CC[C@H](NC(=O)CCCCCCCCCCCCC(=O)O)C(=O)O)NC(=O)[C@@H](NC(=O)[C@H](Cc1ccccc1)NC(=O)[C@H](CCC(=O)O)NC(=O)C(C)(C)NC(=O)[C@H](CCC(N)=O)NC(=O)[C@H](C)NC(=O)[C@H](CCC(N)=O)NC(=O)[C@H](CCCN)NC(=O)[C@H](CC(=O)O)NC(=O)[C@H](CC(C)C)NC(=O)[C@](C)(CC(C)C)NC(=O)[C@@H](NC(=O)C(C)(C)NC(=O)[C@@H](NC(=O)[C@H](CC(=O)O)NC(=O)[C@H](CO)NC(=O)[C@@H](NC(=O)[C@](C)(Cc1ccccc1F)NC(=O)[C@@H](NC(=O)CNC(=O)[C@H](CCC(=O)O)NC(=O)C(C)(C)NC(=O)[C@@H](N)Cc1ccc(O)cc1)[C@@H](C)O)[C@@H](C)O)C(C)C)[C@@H](C)CC)[C@@H](C)CC)C(=O)N[C@@H](CCCCNC(=O)COCCOCCNC(=O)COCCOCCNC(=O)CC[C@H](NC(=O)CCCCCCCCCCCCC(=O)O)C(=O)O)C(=O)NCC(=O)NCC(=O)N1CCC[C@H]1C(=O)N[C@@H](CO)C(=O)N[C@@H](CO)C(=O)NCC(=O)N[C@@H](C)C(=O)N1CCC[C@H]1C(=O)N1CCC[C@H]1C(=O)N1CCC[C@H]1C(=O)N[C@@H](CO)C(N)=O
B9: Example 448 (peptide)
peptide: Y[Aib]EGT[αMePhe(2-F)]TSDV[Aib]I[αMeL]LD[Orn]QAQ[Aib][Orn]FIK([AEEA-AEEA-γGlu-C14 diacid])[αMeY]LIK([AEEA-AEEA-γGlu-C14 diacid])GGPSSGAPPPS-NH2
modifications: N-terminus assumed
SMILES: CC[C@H](C)[C@H](NC(=O)[C@H](CC(C)C)NC(=O)[C@](C)(Cc1ccc(O)cc1)NC(=O)[C@H](CCCCNC(=O)COCCOCCNC(=O)COCCOCCNC(=O)CC[C@H](NC(=O)CCCCCCCCCCCCC(=O)O)C(=O)O)NC(=O)[C@@H](NC(=O)[C@H](Cc1ccccc1)NC(=O)[C@H](CCCN)NC(=O)C(C)(C)NC(=O)[C@H](CCC(N)=O)NC(=O)[C@H](C)NC(=O)[C@H](CCC(N)=O)NC(=O)[C@H](CCCN)NC(=O)[C@H](CC(=O)O)NC(=O)[C@H](CC(C)C)NC(=O)[C@](C)(CC(C)C)NC(=O)[C@@H](NC(=O)C(C)(C)NC(=O)[C@@H](NC(=O)[C@H](CC(=O)O)NC(=O)[C@H](CO)NC(=O)[C@@H](NC(=O)[C@](C)(Cc1ccccc1F)NC(=O)[C@@H](NC(=O)CNC(=O)[C@H](CCC(=O)O)NC(=O)C(C)(C)NC(=O)[C@@H](N)Cc1ccc(O)cc1)[C@@H](C)O)[C@@H](C)O)C(C)C)[C@@H](C)CC)[C@@H](C)CC)C(=O)N[C@@H](CCCCNC(=O)COCCOCCNC(=O)COCCOCCNC(=O)CC[C@H](NC(=O)CCCCCCCCCCCCC(=O)O)C(=O)O)C(=O)NCC(=O)NCC(=O)N1CCC[C@H]1C(=O)N[C@@H](CO)C(=O)N[C@@H](CO)C(=O)NCC(=O)N[C@@H](C)C(=O)N1CCC[C@H]1C(=O)N1CCC[C@H]1C(=O)N1CCC[C@H]1C(=O)N[C@@H](CO)C(N)=O

These binders were tested against T1, human GIP receptor (human, UniProt P48546 22-466) (assay: cell-based or functional assay).
T1 sequence (looked up): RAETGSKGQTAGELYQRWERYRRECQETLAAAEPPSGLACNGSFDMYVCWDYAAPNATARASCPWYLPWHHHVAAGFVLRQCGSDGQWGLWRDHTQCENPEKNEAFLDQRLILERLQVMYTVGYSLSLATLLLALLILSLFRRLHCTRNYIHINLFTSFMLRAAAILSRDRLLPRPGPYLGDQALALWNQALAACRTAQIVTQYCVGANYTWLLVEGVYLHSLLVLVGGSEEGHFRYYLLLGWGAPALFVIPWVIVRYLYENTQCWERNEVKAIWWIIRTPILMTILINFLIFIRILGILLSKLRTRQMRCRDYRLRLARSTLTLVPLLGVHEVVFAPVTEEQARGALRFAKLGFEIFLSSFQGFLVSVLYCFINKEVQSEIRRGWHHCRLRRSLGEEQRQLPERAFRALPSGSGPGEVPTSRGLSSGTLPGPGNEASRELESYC

Binder	cAMP EC50 (1.0% HSA) [nM]	cAMP Emax (1.0% HSA) [%]
B1	2.44	
B2	0.209	
B3	0.266	
B4	12.2	
B5	0.434	83
B6	0.451	
B7	0.57	
B8	3.85	89.3
Y[Aib]EGT[αMePhe(2-F)]TSDV[Aib]I[αMeL]LD[Orn]QAQ[Aib]EFIK([AEEA-AEEA-γGlu-Decanoyl(10-(4-HOOC-PhO))])[αMeY]LIK([AEEA-AEEA-γGlu-Decanoyl(10-(4-HOOC-PhO))])GGPSSGAPPPS-NH2 [Example 446]	5.14	97
Y[Aib]EGT[αMePhe(2-F)]TSDV[Aib]I[αMeL]LD[Orn]IAQ[Aib][Orn]FIK([AEEA-AEEA-γGlu-Decanoyl(10-(4-HOOC-PhO))])[αMeY]LIK([AEEA-AEEA-γGlu-Decanoyl(10-(4-HOOC-PhO))])GGPSSGAPPPS-NH2 [Example 356]	2.47	82.7
Y[Aib]EGT[αMePhe(2-F)]TSDV[Aib]I[αMeL]LD[Orn]QAQ[Aib][Orn]FIK([AEEA-AEEA-γGlu-Decanoyl(10-(4-HOOC-PhO))])[αMeY]LIK([AEEA-AEEA-γGlu-Decanoyl(10-(4-HOOC-PhO))])GGPSSGAPPPS-NH2 [Example 447]	1.46	
B9	1.41	

What follows are binders tested against human GLP-1 receptor (human, UniProt P43220 24-463) (assay: cell-based or functional assay).

Binder	cAMP EC50 (1.0% HSA) [nM]	cAMP Emax (1.0% HSA) [%]
B1	32.3	
B2	2.74	
B3	2.62	
B4	133	
B5	5.39	107
B6	5.47	
B7	7.51	
B8	24.3	94.6
Y[Aib]EGT[αMePhe(2-F)]TSDV[Aib]I[αMeL]LD[Orn]QAQ[Aib]EFIK([AEEA-AEEA-γGlu-Decanoyl(10-(4-HOOC-PhO))])[αMeY]LIK([AEEA-AEEA-γGlu-Decanoyl(10-(4-HOOC-PhO))])GGPSSGAPPPS-NH2 [Example 446]	33.5	105
Y[Aib]EGT[αMePhe(2-F)]TSDV[Aib]I[αMeL]LD[Orn]IAQ[Aib][Orn]FIK([AEEA-AEEA-γGlu-Decanoyl(10-(4-HOOC-PhO))])[αMeY]LIK([AEEA-AEEA-γGlu-Decanoyl(10-(4-HOOC-PhO))])GGPSSGAPPPS-NH2 [Example 356]	23.4	
Y[Aib]EGT[αMePhe(2-F)]TSDV[Aib]I[αMeL]LD[Orn]QAQ[Aib][Orn]FIK([AEEA-AEEA-γGlu-Decanoyl(10-(4-HOOC-PhO))])[αMeY]LIK([AEEA-AEEA-γGlu-Decanoyl(10-(4-HOOC-PhO))])GGPSSGAPPPS-NH2 [Example 447]	7.85	98.4
B9	7.91	99.5

Each binder was assayed against human glucagon receptor (human, UniProt P47871 26-477) (assay: cell-based or functional assay).
Chain of human glucagon receptor (P47871 26-477): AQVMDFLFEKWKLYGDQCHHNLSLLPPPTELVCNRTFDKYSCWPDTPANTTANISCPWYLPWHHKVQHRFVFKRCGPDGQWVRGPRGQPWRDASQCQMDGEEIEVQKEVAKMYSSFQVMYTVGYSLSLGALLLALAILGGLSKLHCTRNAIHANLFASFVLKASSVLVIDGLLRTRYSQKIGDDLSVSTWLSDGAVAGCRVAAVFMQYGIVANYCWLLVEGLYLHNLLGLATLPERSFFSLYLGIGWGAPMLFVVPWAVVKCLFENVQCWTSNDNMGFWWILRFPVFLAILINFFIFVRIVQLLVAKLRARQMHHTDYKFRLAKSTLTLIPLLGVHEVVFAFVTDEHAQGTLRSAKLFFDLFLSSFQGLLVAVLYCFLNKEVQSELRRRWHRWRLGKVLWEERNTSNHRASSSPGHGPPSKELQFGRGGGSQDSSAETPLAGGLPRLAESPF

Binder	cAMP EC50 (1.0% HSA) [nM]
B1	> 9950
B2	> 10100
B3	> 9950
B4	> 9950
B5	> 9950
B6	> 9950
B7	> 9950
B8	> 9950
Y[Aib]EGT[αMePhe(2-F)]TSDV[Aib]I[αMeL]LD[Orn]QAQ[Aib]EFIK([AEEA-AEEA-γGlu-Decanoyl(10-(4-HOOC-PhO))])[αMeY]LIK([AEEA-AEEA-γGlu-Decanoyl(10-(4-HOOC-PhO))])GGPSSGAPPPS-NH2 [Example 446]	> 9950
Y[Aib]EGT[αMePhe(2-F)]TSDV[Aib]I[αMeL]LD[Orn]IAQ[Aib][Orn]FIK([AEEA-AEEA-γGlu-Decanoyl(10-(4-HOOC-PhO))])[αMeY]LIK([AEEA-AEEA-γGlu-Decanoyl(10-(4-HOOC-PhO))])GGPSSGAPPPS-NH2 [Example 356]	> 9950
Y[Aib]EGT[αMePhe(2-F)]TSDV[Aib]I[αMeL]LD[Orn]QAQ[Aib][Orn]FIK([AEEA-AEEA-γGlu-Decanoyl(10-(4-HOOC-PhO))])[αMeY]LIK([AEEA-AEEA-γGlu-Decanoyl(10-(4-HOOC-PhO))])GGPSSGAPPPS-NH2 [Example 447]	> 9950
B9	> 9950
